{
  "source": "the Immune Epitope Database (IEDB)",
  "assay_in_all_cases": "IEDB peptide-MHC binding, purified MHC/competitive/radioactivity; filed as Kd, often an IC50 or EC50 that approximates it; ≥ and ≤ were set here for values at or beyond the usual limits of such assays",
  "key": {"HLA-A*02:02": {"biological_target": "HLA-A*02:02"}, "HLA-A*68:02": {"biological_target": "HLA-A*68:02"}, "HLA-A*02:06": {"biological_target": "HLA-A*02:06"}, "HLA-A*02:03": {"biological_target": "HLA-A*02:03"}, "HLA-A*02:01": {"biological_target": "HLA-A*02:01"}, "[1]": {"settings": "source organism: Guanarito virus strain INH-95551"}, "[2]": {"settings": "source organism: Lassa virus Josiah"}, "[3]": {"settings": "source organism: Pichinde virus strain Munchique"}, "[4]": {"settings": "source organism: Whitewater Arroyo virus strain AV9310135"}},
  "data": [
    {"sequence": "GTTSLFLHL", "values": [
      {"measurement": "Kd", "setting": "HLA-A*02:02; [1]", "result": 57, "unit": "nM"},
      {"measurement": "Kd", "setting": "HLA-A*68:02; [1]", "result": 5, "unit": "nM"},
      {"measurement": "Kd", "setting": "HLA-A*02:06; [1]", "result": 5, "unit": "nM"},
      {"measurement": "Kd", "setting": "HLA-A*02:03; [1]", "result": 750, "unit": "nM"},
      {"measurement": "Kd", "setting": "HLA-A*02:01; [1]", "result": 49, "unit": "nM"}
    ]},
    {"sequence": "YLISIFLHL", "values": [
      {"measurement": "Kd", "setting": "HLA-A*02:02; [2]", "result": 173, "unit": "nM"},
      {"measurement": "Kd", "setting": "HLA-A*02:06; [2]", "result": 10, "unit": "nM"},
      {"measurement": "Kd", "setting": "HLA-A*02:03; [2]", "result": 11, "unit": "nM"}
    ]},
    {"sequence": "YTITVFLHL", "values": [
      {"measurement": "Kd", "setting": "HLA-A*02:02; [3]", "result": 128, "unit": "nM"},
      {"measurement": "Kd", "setting": "HLA-A*68:02; [3]", "result": 5, "unit": "nM"},
      {"measurement": "Kd", "setting": "HLA-A*02:06; [3]", "result": 7, "unit": "nM"},
      {"measurement": "Kd", "setting": "HLA-A*02:03; [3]", "result": 14800, "unit": "nM"},
      {"measurement": "Kd", "setting": "HLA-A*02:01; [3]", "result": 10, "unit": "nM"}
    ]},
    {"sequence": "YVSSIFLHL", "values": [
      {"measurement": "Kd", "setting": "HLA-A*02:02; [4]", "result": "≤ 1", "unit": "nM"},
      {"measurement": "Kd", "setting": "HLA-A*68:02; [4]", "result": "≤ 1", "unit": "nM"},
      {"measurement": "Kd", "setting": "HLA-A*02:06; [4]", "result": 15, "unit": "nM"},
      {"measurement": "Kd", "setting": "HLA-A*02:03; [4]", "result": 10, "unit": "nM"}
    ]}
  ]
}
